# From IntAct's records for PubMed 11069292
# B1: Transcription factor PIF3 (Arabidopsis thaliana (Mouse-ear cress)), O80536 (parent)
# chain: MPLFELFRLTKAKLESAQDRNPSPPVDEVVELVWENGQISTQSQSSRSRNIPPPQANSSRAREIGNGSKTTMVDEIPMSVPSLMTGLSQDDDFVPWLNHHPSLDGYCSDFLRDVSSPVTVNEQESDMAVNQTAFPLFQRRKDGNESAPAASSSQYNGFQSHSLYGSDRARDLPSQQTNPDRFTQTQEPLITSNKPSLVNFSHFLRPATFAKTTNNNLHDTKEKSPQSPPNVFQTRVLGAKDSEDKVLNESVASATPKDNQKACLISEDSCRKDQESEKAVVCSSVGSGNSLDGPSESPSLSLKRKHSNIQDIDCHSEDVEEESGDGRKEAGPSRTGLGSKRSRSAEVHNLSERRRRDRINEKMRALQELIPNCNKVDKASMLDEAIEYLKSLQLQVQIMSMASGYYLPPAVMFPPGMGHYPAAAAAMAMGMGMPYAMGLPDLSRGGSSVNHGPQFQVSGMQQQPVAMGIPRVSGGGIFAGSSTIGNGSTRDLSGSKDQTTTNNNSNLKPIKRKQGSSDQFCGSS
# Variants of: B1
# Settings: with phyb_arath PHYB
row,Variant,effect of a mutation on the interaction
1,MPLFELFRLTKAKLESAQDRNPSPPVDEVVELVWENGQISTQSQSSRSRNIPPPQANSSRAREIGNGSKTTMVDEIPMSVPSLMTGLSQDDDFVPWLNHHPSLDGYCSDFLRDVSSPVTVNEQESDMAVNQTAFPLFQRRKDGNESAPAASSSQYNGFQSHSLYVSDRARDLPSQQTNPDRFTQTQEPLITSNKPSLVNFSHFLRPATFAKTTNNNLHDTKEKSPQSPPNVFQTRVLGAKDSEDKVLNESVASATPKDNQKACLISEDSCRKDQESEKAVVCSSVGSGNSLDGPSESPSLSLKRKHSNIQDIDCHSEDVEEESGDGRKEAGPSRTGLGSKRSRSAEVHNLSERRRRDRINEKMRALQELIPNCNKVDKASMLDEAIEYLKSLQLQVQIMSMASGYYLPPAVMFPPGMGHYPAAAAAMAMGMGMPYAMGLPDLSRGGSSVNHGPQFQVSGMQQQPVAMGIPRVSGGGIFAGSSTIGNGSTRDLSGSKDQTTTNNNSNLKPIKRKQGSSDQFCGSS [G165V],decreasing interaction
